The record followed here is article PMC3688974.

For this experiment, the target named is HLA-A*02 molecules at the surface of T1 cells (human (endogenous in T1 cells)). The experiment in a line: flow cytometry on cells; T1 cells pulsed with 20 µM NY_(157-165) peptide (three pulses, stability control; or freshly for 2 h, day control); HLA-A*02/NY_(157-165) complexes detected with a complex-specific F(ab) and a PE-conjugated second antibody 24, 48 and 96 h after the last loading. (In flow cytometry, cells or beads pass a laser one at a time.)

“NY-ESO-1_(157-165) peptide (from UniProt P78358 157-165)”: the percent of the complexes of freshly peptide-pulsed T1 cells still detected came to 64%.
